PMC8816746, “Genetic tools for the redirection of the central carbon flow towards the production of lactate in the human gut bacterium Phocaeicola (Bacteroides) vulgatus” (Applied Microbiology and Biotechnology, 2022)

Substrate: CC(=O)C(=O)O
Assay: purified protein
Assay type: biochemical, Phocaeicola vulgatus
Conditions: 250 μM NADH, 100 mM K-phosphate pH 7, 37 °C

B1: D-LDH (BVU_2499) (Phocaeicola vulgatus ATCC 8482) (protein)
chain: AYKIAFYDTKPYDERSFTEANEKFGFDIRYYKGHLNMNNVVLTKGVDVVCIFVNDTADAEVIRAMADNGVKLLALRCAGYNNVDLAATAGKMKVVRVPAYSPYAVAEFTVALMLSLNRKIPRATMRTRDGNFSLHGLMGFDMHGKTAGIIGTGKIAKILIQILRGFGMNVLAYDLYPDYNFAREHQVVYCTLDELYHSSDIISLHCPLTEQTKYLINDYSISKMKDGVMIINTGRGQLIHTNALIEGLKTKKVGYAGLDVYEEEEPYFYEDKSDKIIDDDTLARLLSFNNVIVTSHQAFFTKEAMTNIAHTTLQNVKDFAESRSLVNEVAVGRV
notes: full-length ldh in pASK-IBA5, N-terminal Strep-tag kept (no cleavage told), E. coli DH5alpha, Strep-Tactin purified
Km: 1400 ± 100 µM
